From paper doi:10.1101/2022.05.04.490172 come the findings set out here.

In the data set the target is T1, BRN2 DNA-binding domain (BRN2-DBD) (Homo sapiens, UniProt P20265 264-415).
T1 sequence: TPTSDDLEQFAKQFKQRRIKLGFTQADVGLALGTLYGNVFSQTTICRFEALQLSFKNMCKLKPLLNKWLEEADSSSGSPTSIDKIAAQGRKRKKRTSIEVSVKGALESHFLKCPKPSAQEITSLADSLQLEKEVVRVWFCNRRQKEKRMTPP
In words: X-ray crystallography.

B1: MORE DNA (dsDNA)
DNA 1: GTATGCAAATAAG
DNA 2: CTTATTTGCATAC
As for B1, the binding result was “binds”.
